According to patent publication US20160075790A1 (Bristol-Myers Squibb, published 2016):
Where “and” joins values, the source holds several entries; their conditions need not be identical. Equal entries are not always repeated.

T1: human CD40L, membrane-bound on cells (human, UniProt P29965 1-261)
T1 sequence: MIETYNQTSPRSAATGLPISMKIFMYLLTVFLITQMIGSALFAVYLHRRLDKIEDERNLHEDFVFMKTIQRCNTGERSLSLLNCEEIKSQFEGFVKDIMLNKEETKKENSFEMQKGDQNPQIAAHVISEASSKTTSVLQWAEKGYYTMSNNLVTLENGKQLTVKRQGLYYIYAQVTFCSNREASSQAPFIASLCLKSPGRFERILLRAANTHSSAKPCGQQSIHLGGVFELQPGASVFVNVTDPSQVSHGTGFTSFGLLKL

T2: human isoleucine zipper-CD40L (IZ-hCD40L) (human, UniProt P29965 113-261)
T2 sequence: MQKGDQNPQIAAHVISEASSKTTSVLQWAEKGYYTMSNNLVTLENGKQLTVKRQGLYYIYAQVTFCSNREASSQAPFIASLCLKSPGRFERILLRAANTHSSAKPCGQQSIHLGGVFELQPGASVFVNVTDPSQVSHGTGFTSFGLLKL


Columns and labels:
[1] = target: T1, human CD40L, membrane-bound on cells; assay: cell-based or functional assay
[2] = target: T2, human isoleucine zipper-CD40L …; assay: cell-based or functional assay

Row | hIZCD40L-driven Human B Cell Proliferation EC50 [2] | Binder | other results
1 | 0.023 µM | BMS2h-116-1312 (other) VL: DIQMTQSPSSLSASVGDRVTITCRASQPIGPDLLWYQQKPGKAPKLLIYQTSILRSGVPSRFSGSGSETDFTLTISNLQPEDLATYYCQQYWAFPVTFGKGTKVVIKR | CHO-hCD40L-driven DC Activation IL-12 EC50 [1]: 0.112 µM; CHO-hCD40L-driven Human B Cell Proliferation EC50 [1]: 0.53 µM; T-B cell MLR EC50 [1]: 0.234 µM
2 |  | BMS2h-116-1313 (other) VL: DIQMTQSPSSLSASVGDRVTITCRASQPIGPDLLWYQQKPGKAPKLLIYQTSILRSGVPSRFSGSGSETDFTLTISNLQPEDFATYYCQQYWAFPVTFGRGTKVVIKR | T-B cell MLR EC50 [1]: 0.258 µM
3 | > 2 µM | BMS2h-783 (other) VH: EVQLLESGGGLVQPGGSLRLSCAASGFTFRDYDMGWVRQAPGKGLEWVSTISPLGHFTYYADSVKGRFTISRDNSKNTLYLQMNSLRAEDTAVYYCAKSGFHEYTEGFDYWGQGTLVTVSS | 
4 | > 7 µM | BMS2h-780 (other) VH: EVQLLESGGGLVQPGGSLRLSCAASGFTFGSYTMMWVRQAPGKGLEWVSEIDRTGERTYYADSVKGRFTISRDNSKNTLYLQMNSLRAEDTAVYYCAEPGFASLPFDYWGQGTLVTVSS | 
5 | 0.117 µM | BMS2h-572-632 (other) VH: EVQLLESGGGLVQPGGSLRLSCAASGFTFKWQLMGWVRQAPGKGLEWVSGIEGPGDVTYYADSVKGRFTISRDNSKNTLYLQMNSLRAEDTAVYYCVKVGKDSKSDYRGQGTLVTVSS | CHO-hCD40L-driven DC Activation IL-12 EC50 [1]: 0.241 µM
6 | 0.324 µM and 0.243 µM | BMS2h-572-9 (other) VH: EVQLLESGGGLVQPGGSLRLSCAASGFTFNWQLMGWVRQAPGKGLEWVSGIEGPGDVTYYADSVKGRFTISRDNSKNTLYLQMNSLRAEDTAVYYCAKVGKESNSDYRGQGTLVTVSS | CHO-hCD40L-driven DC Activation IL-12 EC50 [1]: > 2 µM
7 | 0.029 µM | BMS2h-572-635 (other) VH: EVQLLESGGGLVQPGGSLRLSCAASGFTFNWELMGWARQAPGKGLEWVSGIEGPGDVTYYADSVKGRFTISRDNSKNTLYLQMNSLRAEDTAVYYCVKVGKDSKSDYRGQGTLVTVSS | CHO-hCD40L-driven DC Activation IL-12 EC50 [1]: 0.052 µM
8 | 0.031 µM | BMS2h-572-634 (other) VH: EVQLLESGGGLVQPGGSLRLSCAASGFTFNWELMGWARQAPGKGLEWVSGIEGPGDVTYYADSVKGRFTISRDNSKNTLYLQMNSLRAEDTAVYYCVKVGKDSRSDYRGQGTLVTVSS | CHO-hCD40L-driven DC Activation IL-12 EC50 [1]: 0.077 µM
9 | > 7 µM | BMS2h-572 (other) VH: EVQLLESGGGLVQPGGSLRLSCAASGFTFNWQLMGWVRQAPGKGLEWVSGIEGPGDVTYYADSVKGRFTISRDNSKNTLYLQMNSLRAEDTAVYYCAKVGKESNFDYRGQGTLVTVSS | 
10 | 0.208 µM | BMS2h-572-6 (other) VH: EVQLLESGGGLVQPGGSLRLSCAASGFTFNWQLMGWVRQAPGKGLEWVSGIEGPGDVTYYADSVKGRFTISRDNSKNTLYLQMNSLRAEDTAVYYCVKVGKESNSDYRGQGTLVTVSS | CHO-hCD40L-driven Human B Cell Proliferation EC50 [1]: > 7 µM; T-B cell MLR EC50 [1]: > 7 µM
11 | 5.7 µM | BMS2h-437 (other) VL: DIQMTQSPSSLSASVGDRVTITCRASTPIGTMLDWYQQKPGKAPKLLIGHSSWLQSGVPSRFSGSGSGTDFTLTISSLQPEDFATYYCGQHVRPPATFGQGTKVEIKR | 
12 | > 4.7 µM | BMS2h-784 (other) VH: EVQLLESGGGLVQPGGSLRLSCAASGFTFDRAGMGWVRQAPGKGLEWVSLIGRGGDITYYADSVKGRFTISRDNSKNTLYLQMNSLRAEDTAVYYCAKIRNLHWDVGRQFDYWGQGTLVTVSS | 
13 | > 7 µM | BMS2h-494-3 (other) VL: DIQMTQSPSSLSASVGDRVTITCRASQSIDEDLEWYQQKPGKAPRLLIYSSSWLQSGVPSRFSGSGSGTDFTLTISSLQPEDFATYFCQQYFQYPPTFGQGTKVEIKR | 
14 | 3.7 µM and > 7 µM | BMS2h-785 (other) VL: DIQMTQSPSSLSASVGDRVTITCRASQPIYGWLNWYQQKPGKAPKLLIYLTSGLQSGVPSRFSGSGSGTDFTLTISSLQPEDFATYYCQQIHSSPFTFGQGTKVEIKR | 
15 | > 7 µM | BMS2h-492 (other) VL: DIQMTQSPSSLSASVGDRVTITCRASQAIELNLEWYQQKPGKAPKLLIYDASMLQSGVPSRFSGSGSGTDFTLTISSLQPEDFATYYCQQYDVYPPTFGQGTKVEIKR | 
16 | 6.1 µM | BMS2h-494 (other) VL: DIQMTQSPSSLSASVGDRVTITCRASQSIDEDLEWYQQKPGKAPRLLIYSSSWLQSGVPSRFSGSGSGTDFTLTISSLQPEDFATYYCQQYFQYPPTFGQGTKVEIKR | 
17 | 1.9 µM | BMS2h-492-7 (other) VL: DIQMTQSPSSLSASVGDRVTITCRASQAIEHNLEWYQQKPGKAPKLLIYDASMLQSGVPSRFSGSGSGTDFTLTISSLQPEDFATYYCQQYDAYPPTFGQGTKVEIKR | 
18 | 4.8 µM | BMS2h-494-2 (other) VL: DIQMTQSPSSLSASVGDRVTITCRASQSIEEDLEWYQQKPGKAPRLLIYSSSWLQSGVPSRFSGSGSGTDFTLTISSLQPEDFATYYCQQYFQYPPTFGHGTKVEIKR | 
19 | 6.3 µM | BMS2h-492-6 (other) VL: DIQMTQSPSSLSASVGDRVTITCRASQAIESNLEWYQQKPGKAPKLLIYDASMLQSGVPSRFSGSGSGTDFTLTISSLQPEDFATYYCQQYDVYPPTFGQGTKVEIKR | 
20 | 2.3 µM | BMS2h-492-5 (other) VL: DIQMNQSPSSLSASVGDRVSITCRASQAIEHNLEWYQQKPGKAPKLLIYDASMLQSGVPSRFSGSGSGTDFTLTISSLQPEDFATYYCQQYDAYPPTFGQGTKVEIKR | 
21 | > 7 µM | BMS2h-781 (other) VH: EVQLLESGGGLVQPGGSLRLSCAASGFTFTDYTMYWVRQAPGKGLEWVSKISPSGRSTYYADSVKGRFTISRDNSKNTLYLQMNSLRAEDTAVYYCAKDPFGFDYWGQGTLVTVSS | 
22 | > 7 µM | BMS2h-775 (other) VH: EVQLLESGGGLVQPGGSLRLSCAASGFTFPNYGMLWVRQAPGKGLEWVSSINSSGMETYYADSVKGRFTISRDNSKNTLYLQMNSLRAEDTAVYYCAKFFRLNDHNSVFGFDYWGQGTLVTVSS | 
23 | > 7 µM | BMS2h-782 (other) VH: EVQLLESGGGLVQPGGSLRLSCAASGFTFDDAEMFWVRQAPGKGLEWVSSIDARGLTTYYADPVKGRFTISRDNSKNTLYLQMNSLRAEDTAVYYCAEATSAMYPFDYWGQGTLVTVSS | 
